Assay results published in PMC10924156, “Design, Preclinical Evaluation, and Clinical Translation of ^68Ga-FAPI-LM3, a Heterobivalent Molecule for PET Imaging of Nasopharyngeal Carcinoma” (Journal of Nuclear Medicine, 2024).
Read-outs that look alike come from different tables or passages of the source. Starred links: 1 amine or outer side, 2 acyl side, 3 side chain; linkers in the order of their positions; H or OH if unused. Positions of bridges follow the written chain, without caps; N, C: chain ends. Non-standard residues stand in square brackets, D forms with d. Residues, ends and D or L forms follow the SMILES beside them. *: point of attachment. X1 = CN(CCCN1CCN(*)CC1)c1ccc2nccc(C(=O)NCC(=O)N3CC(F)(F)C[C@H]3C#N)c2c1; DOTA = O=C(O)CN1CCN(CC(=O)O)CCN(CC(=O)*)CCN(CC(=O)O)CC1; dPhe(4-NHCONH2) = NC(=O)Nc1ccc(C[C@@H](N)C(=O)O)cc1; Phe(4-Cl) = N[C@@H](Cc1ccc(Cl)cc1)C(=O)O; Suc = O=C(CCC(=O)[*:2])[*:1]; AEEEA = NCCOCCOCCOCC(=O)O

Legend:
[1] = target: T1, human FAP (Homo sapiens, UniProt Q12884); assay: FAP radioligand binding assay on HT-1080-FAP cells; details: read-out: half-maximal inhibitory concentration, FAP binding
T1 construct: expressed in transfected cells
T1 sequence (Q12884 1-760): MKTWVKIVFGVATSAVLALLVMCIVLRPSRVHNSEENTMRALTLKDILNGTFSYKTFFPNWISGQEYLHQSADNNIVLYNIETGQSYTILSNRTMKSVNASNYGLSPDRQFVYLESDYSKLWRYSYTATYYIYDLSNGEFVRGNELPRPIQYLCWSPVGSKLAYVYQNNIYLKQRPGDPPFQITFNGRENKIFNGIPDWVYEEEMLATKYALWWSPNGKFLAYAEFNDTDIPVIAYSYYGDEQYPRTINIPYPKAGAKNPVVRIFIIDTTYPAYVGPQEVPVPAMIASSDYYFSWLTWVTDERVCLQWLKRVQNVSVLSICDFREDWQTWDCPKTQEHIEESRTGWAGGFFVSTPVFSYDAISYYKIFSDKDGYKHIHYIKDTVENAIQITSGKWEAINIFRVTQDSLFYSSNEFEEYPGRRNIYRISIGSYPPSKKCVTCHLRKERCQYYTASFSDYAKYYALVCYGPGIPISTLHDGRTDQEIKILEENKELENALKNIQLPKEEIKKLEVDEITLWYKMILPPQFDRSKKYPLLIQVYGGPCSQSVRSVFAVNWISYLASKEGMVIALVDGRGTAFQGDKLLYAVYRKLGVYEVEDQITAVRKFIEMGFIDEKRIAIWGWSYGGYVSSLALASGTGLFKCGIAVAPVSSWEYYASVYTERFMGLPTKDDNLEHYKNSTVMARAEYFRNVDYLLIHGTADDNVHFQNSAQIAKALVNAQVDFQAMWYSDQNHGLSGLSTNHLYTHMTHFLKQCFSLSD
Description: (§1) Information on cell resources, transfection, and culture is provided in the supplemental materials. For in vitro studies, the cells were seeded in 24-well plates and cultured in a routine medium until they reached approximately 80% confluence. During the experiment, the medium was replaced with a fetal bovine serum–free medium. […] After a 60-min incubation period, the free tracer was removed using phosphate-buffered saline before measurement. The cells were lysed with 0.5 mL of 1 M NaOH, and radioactivity was subsequently gauged using a γ-counter (Wizard 2480; PerkinElmer Inc.).

[2] = target: T2, SSTR2 (Homo sapiens, UniProt P30874); assay: SSTR2 receptor binding assay on HT-1080-SSTR2 cells; details: read-out: half-maximal inhibitory concentration, SSTR2 binding
T2 construct: expressed in transfected cells
T2 sequence (P30874 whole entry): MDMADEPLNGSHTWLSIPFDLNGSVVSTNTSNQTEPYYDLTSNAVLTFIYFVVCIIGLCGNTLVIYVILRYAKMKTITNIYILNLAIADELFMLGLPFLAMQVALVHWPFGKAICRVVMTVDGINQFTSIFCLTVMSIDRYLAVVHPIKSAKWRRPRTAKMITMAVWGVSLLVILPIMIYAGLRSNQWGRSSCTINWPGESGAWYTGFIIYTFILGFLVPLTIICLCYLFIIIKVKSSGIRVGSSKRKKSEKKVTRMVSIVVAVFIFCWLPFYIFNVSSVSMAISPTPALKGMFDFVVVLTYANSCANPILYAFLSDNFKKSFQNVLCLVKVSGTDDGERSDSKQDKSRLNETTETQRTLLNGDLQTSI
Description: as §1

[3] = in vitro; format: in vitro ADME, bovine; details: serum
Description: Information regarding the reagents, chemicals, high-performance liquid chromatography, liquid chromatography–mass spectrometry, and flow diagram of the synthesis of FAPI-LM3 are provided in the supplemental materials (available at http://jnm.snmjournals.org ([16])). The radiolabeling of FAPI-46, DOTA-LM3, and FAPI-LM3 precursors with ^68Ga was performed following similar procedures. In brief, 25 nmol of the precursor in 1 mL of sodium acetate buffer (0.25 M, pH 8.2–8.3) was allowed to react with 4 mL of ^68Ga solution (1.3 GBq in 0.6 M HCl) at 100°C for 15 min. For clinical imaging, the final product was passed through a 0.22-μm Millipore filter for sterilization in each ^68Ga-FAPI-LM3 preparation process. The stability of ^68Ga-FAPI-LM3 was determined by incubating the product in phosphate-buffered saline and fetal bovine serum at 37°C and analyzing it via radio–high-performance liquid chromatography after 1 and 2 h of incubation.

[4] = human, in vivo
[5] = test system: nasopharyngeal carcinoma lesions; details: human, in vivo
[6] = test system: HT-1080-FAP, HT-1080-SSTR2, HT-1080-FAP–plus–HT-1080-SSTR2, C666-1, U87MG cells; assay: Cellular uptake test and blocking experiments; format: cell-based, human; details: 60 min, with 10 nmol unlabeled FAPI-46, DOTA-LM3 or both; all P < 0.05
Description: as §1

[7] = clinical; details: human, in vivo, total radioactivity; for SUV: Median SUVmax; for SUV at 1 h: SUVmax
[8] = in vivo; details: BALB/c nude, mouse, iv, 7.4 MBq, total radioactivity, tumor uptake (PET)
Description: (§2) Tumor-bearing mice (3/group) were intravenously injected with approximately 7.4 MBq of ^68Ga-FAPI-LM3, ^68Ga-FAPI-46, or ^68Ga-DOTA-LM3. Subsequent static PET scans were obtained at intervals of 0.5, 1, 2, and 4 h after injection using an Inveon small-animal PET scanner (Siemens). In the blocking experiment, approximately 60 nmol of the unlabeled precursor (FAPI-46, DOTA-LM3, or FAPI-46 plus DOTA-LM3) were simultaneously injected with ^68Ga-FAPI-LM3. The PET images were reconstructed iteratively using 3-dimensional OpMAP 256 (PET reconstruction protocol [.pPetRcn]; Siemens Healthineers AG) and converted to percentage injected dose per gram of tissue (%ID/g) by delineating the regions of interest. For the biodistribution studies, approximately 1.48 MBq of ^68Ga-FAPI-LM3, ^68Ga-FAPI-46, ^68Ga-DOTA-LM3, or ^68Ga-FAPI-LM3 with unlabeled precursor were injected into tumor-bearing mice (3/group), and different groups of mice were euthanized at the scheduled time points after injection.

[9] = test system: HT-1080-FAP–plus–HT-1080-SSTR2 tumor xenograft; assay: Small-animal PET imaging; details: 1 h after injection
Description: as §2

[10] = in vivo; details: BALB/c nude, mouse, 1.48 MBq, total radioactivity
Description: as §2

[11] = test system: HT-1080-FAP–plus–HT-1080-SSTR2 xenografts; details: mouse
Description: as §2

[12] = test system: SSTR2; details: cited from earlier work
Text: Within the domain of nuclear medicine, several targets, such as somatostatin receptor 2 (SSTR2), prostate-specific membrane antigen, and FAP, have emerged as prominent subjects of research ([7],[8]). Epstein–Barr virus latent membrane protein 1 can upregulate SSTR2 expression via the NF-κB pathway ([9]). Both FAP and SSTR2 are important markers in the biology of NPC, as evidenced by the plethora of such PET radiopharmaceuticals, including ^68Ga-FAPI for imaging cancer-associated fibroblasts and ^68Ga-DOTATATE for imaging SSTR2 ([10],[11]).

For `C[C@@H](O)[C@@H]1NC(=O)[C@H](CCCCN)NC(=O)[C@@H](Cc2ccc(NC(N)=O)cc2)NC(=O)[C@H](Cc2ccc(O)cc2)NC(=O)[C@H](NC(=O)[C@H](Cc2ccc(Cl)cc2)NC(=O)[C@H](CCCCNC(=O)CN2CCN(CC(=O)O)CCN(CC(=O)O)CCN(CC(=O)O)CC2)NC(=O)CCC(=O)NCCOCCOCCOCC(=O)N2CCN(CCCN(C)c3ccc4nccc(C(=O)NCC(=O)N5CC(F)(F)C[C@H]5C#N)c4c3)CC2)CSSC[C@@H](C(=O)N[C@H](Cc2ccc(O)cc2)C(N)=O)NC1=O` [FAPI-LM3] ({X1-AEEEA-Suc}-K(DOTA)[Phe(4-Cl)][dC]Y[dPhe(4-NHCONH2)]KTC[dY]-NH2; disulfide 3-8), the IC50 [1] was 11.7 nM and the IC50 [2] was 13.2 nM.
Molecule `CN(CCCN1CCN(C(=O)CN2CCN(CC(=O)O)CCN(CC(=O)O)CCN(CC(=O)O)CC2)CC1)c1ccc2nccc(C(=O)NCC(=O)N3CC(F)(F)C[C@H]3C#N)c2c1` [FAPI-46, reference compound] has an IC50 ([1]; HT-1080-FAP cells, radioligand 68Ga-FAPI-46, 60 min incubation, 8.16 × 10^−5 to 10^−13 M, n = 3) of 4.39 nM.
For `C[C@@H](O)[C@@H]1NC(=O)[C@H](CCCCN)NC(=O)[C@@H](Cc2ccc(NC(N)=O)cc2)NC(=O)[C@H](Cc2ccc(O)cc2)NC(=O)[C@H](NC(=O)[C@H](Cc2ccc(Cl)cc2)NC(=O)CN2CCN(CC(=O)O)CCN(CC(=O)O)CCN(CC(=O)O)CC2)CSSC[C@@H](C(=O)N[C@H](Cc2ccc(O)cc2)C(N)=O)NC1=O` [DOTA-LM3, reference compound] ({DOTA}-[Phe(4-Cl)][dC]Y[dPhe(4-NHCONH2)]KTC[dY]-NH2; disulfide 2-7), the IC50 [2] was 1.3 nM.
With `C[C@@H](O)[C@@H]1NC(=O)[C@H](CCCCN)NC(=O)[C@@H](Cc2ccc(NC(N)=O)cc2)NC(=O)[C@H](Cc2ccc(O)cc2)NC(=O)[C@H](NC(=O)[C@H](Cc2ccc(Cl)cc2)NC(=O)[C@H](CCCCNC(=O)CN2CCN(CC(=O)O)CCN(CC(=O)O)CCN(CC(=O)O)CC2)NC(=O)CCC(=O)NCCOCCOCCOCC(=O)N2CCN(CCCN(C)c3ccc4nccc(C(=O)NCC(=O)N5CC(F)(F)C[C@H]5C#N)c4c3)CC2)CSSC[C@@H](C(=O)N[C@H](Cc2ccc(O)cc2)C(N)=O)NC1=O` [^68Ga-FAPI-LM3, metal not drawn] ({X1-AEEEA-Suc}-K(DOTA)[Phe(4-Cl)][dC]Y[dPhe(4-NHCONH2)]KTC[dY]-NH2; disulfide 3-8) the remaining at 2 h [3] was over 99%, the “Effective dose equivalent, Mean” value [4] was 1.20E–03 mSv/MBq and the “dosimetry, Adrenal glands, Mean” value [4] was 5.98E–05 mSv/MBq. For the same molecule, the “dosimetry, Brain, Mean” value [4] was 1.63E–06 mSv/MBq, the “dosimetry, Breasts, Mean” value [4] was 3.47E–05 mSv/MBq and the “dosimetry, Kidneys, Mean” value [4] was 1.08E–04 mSv/MBq. For the same molecule, the “dosimetry, LLI wall (lower large intestine), Mean” value [4] was 4.34E–04 mSv/MBq, the “dosimetry, Liver, Mean” value [4] was 1.28E–03 mSv/MBq and the “dosimetry, Lungs, Mean” value [4] was 7.68E–04 mSv/MBq. For the same molecule, the “dosimetry, Muscle, Mean” value [4] was 1.57E–05 mSv/MBq, the “dosimetry, Osteogenic cells, Mean” value [4] was 4.22E–05 mSv/MBq and the “dosimetry, Ovaries, Mean” value [4] was 3.66E–04 mSv/MBq. The “dosimetry, Pancreas, Mean” value [4] was 1.23E–04 mSv/MBq, the “dosimetry, Red marrow, Mean” value [4] was 7.62E–04 mSv/MBq and the “dosimetry, Skin, Mean” value [4] was 6.29E–06 mSv/MBq. For the same molecule, the “dosimetry, Small intestine, Mean” value [4] was 2.71E–05 mSv/MBq, the “dosimetry, Spleen, Mean” value [4] was 1.23E–04 mSv/MBq and the “dosimetry, Stomach wall, Mean” value [4] was 4.04E–04 mSv/MBq. For the same molecule, the “dosimetry, Thyroid, Mean” value [4] was 3.68E–06 mSv/MBq, the “dosimetry, ULI wall (upper large intestine), Mean” value [4] was 1.53E–05 mSv/MBq and the “dosimetry, Urinary bladder wall, Mean” value [4] was 2.14E–03 mSv/MBq. For the same molecule, the “dosimetry, Uterus, Mean” value [4] was 2.19E–04 mSv/MBq, the “physiologic uptake in normal organs” value [5] was “intense physiologic uptake” and the “binding to FAP or SSTR2 with corresponding unlabeled agent” value [6] was “significantly blocked”. For the same molecule, the SUV ([7]; Bone mets) was 11.2 SUV, the SUV ([7]; Distant LN mets) was 16.9 SUV and the SUV ([7]; Liver mets) was 16.5 SUV. The SUV ([7]; Peritoneal mets) was 13.1 SUV, the SUV ([7]; Pleural mets) was 17.3 SUV and the SUV ([7]; Primary) was 13.8 SUV. For the same molecule, the SUV ([7]; Regional LN mets) was 11.4 SUV, the SUV ([7]; Total distant metastases) was 14.6 SUV and the SUV at 1 h ([7]; bone metastases) was 10.4 SUV. The SUV at 1 h ([7]; distant lymph node metastases) was 14.5 SUV, the SUV at 1 h ([7]; liver metastases) was 14.3 SUV and the SUV at 1 h ([7]; regional lymph node metastases) was 10.1 SUV. The tissue uptake at 0.5 h [8] was 14 ± 0.47 %ID/g, the tissue uptake at 1 h [8] was 14.4 ± 0.67 %ID/g and the tissue uptake at 2 h [8] was 14.4 ± 0.68 %ID/g. The tissue uptake at 4 h [8] was 13.8 ± 0.68 %ID/g, the “blockade of tumor uptake” value ([9]; unlabeled DOTA-LM3) was 62% and the “blockade of tumor uptake” value ([9]; unlabeled FAPI-46) was 63%. The “blockade of tumor uptake” value ([9]; unlabeled FAPI-46 plus DOTA-LM3) was 93%, the tissue uptake at 1 h [10] was 14.8 ± 0.76 %ID/g and the tissue uptake at 4 h [10] was 17.7 ± 2.46 %ID/g. The “uptake in blood (ex vivo biodistribution)” value [11] was “high”.
For “p-Cl-Phe-cyclo(D-Cys-Tyr-D-4-amino-Phe(carbamoyl)-Lys-Thr-Cys)D-Tyr-NH2 (disulfide) [LM3, SSTR2 antagonist peptide]”, the “binding affinity to SSTR2” value [12] is given as “high” and the internalization rate [12] is given as “low”.
In the case of `OC[C@H]1OC(O)[C@H]([18F])[C@@H](O)[C@@H]1O` (stereo partly shown) [^18F-FDG], the “Median SUVmax, Distant LN mets” value [5] is reported as 8.2 (2.0–9.0), the “Median SUVmax, Peritoneal mets” value [5] is reported as 3.4 (1.5–8.6) and the “Median SUVmax, Pleural mets” value [5] is reported as 7.2 (3.7–12.0).
